B1: C-domain with the linker region of IF3mt (IF3mt(C+L)) (domain or fragment, human, UniProt Q9H2K0 131-278, looked up)
chain: MTGLQILQERQRLREMEKANPKTGPTLRKELILSSNIGQHDLDTKTKQIQQWIKKKHLVQITIKKGKNVDVSENEMEEIFHQILQTMPGIATFSSRPQAVQGGKALMCVLRAFSKNEEKAYKETQETQERDTLNKDHGNDKESNVLHQ
B2: IF3mt lacking the N- and C-terminal extensions (IF3mtΔNC) (domain or fragment, human, UniProt Q9H2K0 61-245, looked up)
chain: TQNEGKKTKKNKTAFSNVGRKISQRVIHLFDEKGNDLGNMHRANVIRLMDERDLRLVQRNTSTEPAEYQLMTGLQILQERQRLREMEKANPKTGPTLRKELILSSNIGQHDLDTKTKQIQQWIKKKHLVQITIKKGKNVDVSENEMEEIFHQILQTMPGIATFSSRPQAVQGGKALMCVLRAFSK

Experiments:
Test in all cases: cross-linking
[1] = target: Full length mature human mitochondrial translational initiation factor 3 (IF3mt) (human, UniProt Q9H2K0 32-278)
[2] = target: B2
[3] = target: B1
PTCD3 = PTCD3 (bovine (endogenous in bovine …, UniProt Q2KI62 38-688))
Sequence of PTCD3 (bovine (Q2KI62 38-688): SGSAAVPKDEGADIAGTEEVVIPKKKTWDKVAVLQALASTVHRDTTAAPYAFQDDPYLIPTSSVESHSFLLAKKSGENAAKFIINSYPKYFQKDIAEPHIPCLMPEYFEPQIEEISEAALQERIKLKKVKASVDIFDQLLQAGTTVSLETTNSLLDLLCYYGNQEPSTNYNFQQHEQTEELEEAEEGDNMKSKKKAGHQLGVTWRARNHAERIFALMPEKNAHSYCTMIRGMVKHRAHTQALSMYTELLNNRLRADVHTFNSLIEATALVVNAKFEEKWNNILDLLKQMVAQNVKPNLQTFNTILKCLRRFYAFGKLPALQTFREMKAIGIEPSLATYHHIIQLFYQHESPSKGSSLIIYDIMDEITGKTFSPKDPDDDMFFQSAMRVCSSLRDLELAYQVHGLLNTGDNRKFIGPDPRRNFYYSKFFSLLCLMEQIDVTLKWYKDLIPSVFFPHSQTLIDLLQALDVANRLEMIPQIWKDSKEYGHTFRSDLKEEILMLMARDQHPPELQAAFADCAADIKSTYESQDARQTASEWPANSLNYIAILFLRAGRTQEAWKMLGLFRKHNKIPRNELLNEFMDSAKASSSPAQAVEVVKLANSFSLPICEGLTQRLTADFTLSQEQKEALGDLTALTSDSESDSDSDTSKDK

MRPS29 = MRPS29 (bovine (endogenous in bovine …, UniProt P82922 18-397))
MRPS18-2 = MRPS18-2 (bovine (endogenous in bovine …, UniProt P82918 36-258))

| binding result [1] | binding result [2] | binding result [3] | binding result (PTCD3) | binding result (MRPS29) | binding result (MRPS18-2) | Binder |
| --- | --- | --- | --- | --- | --- | --- |
| binds | binds | binds |  |  |  | MRPS32 (natural protein, UniProt P82927 33-142, looked up) KSTYSSLPDDYNCKVELALTSDARTIVCYHPSVDIPYEHTKPIPRPDPVHNNEETHDLVLKTRLEEKSEHLEQGPMIEQLSKMFFTTKHRWYPRGQYHRRRRKLNPPKDR |
|  |  |  | binds | binds |  | B1 |
|  |  |  | binds | binds | binds | B2 |
| binds |  | binds |  |  |  | MRPS36 (natural protein, UniProt P82908 1-103, looked up) MMGSKMASASRVVQVVKPHTPLIRFPDRRDNPKPNVSEVLRSAGLPSHTSSISQHSKGSKSPDWLMHQGPPDTAEMIKTLPQKYRRKLVSQEEIEFIQRGGPE |
